Results published in US7432061B2, “Assays for measuring matrix metalloproteinase activities” (BioZyme, Inc., priority 2002, dated 2008).

How the values were obtained:
gelatinase B = gelatinase B (Homo sapiens, UniProt P14780); assay: Inhibition with type II collagen, FlSub3 cleavage; assay type: biochemical; settings: for Average Percent Inhibition: GELB(.008 nM)
Description: (§1) In a 96 well plate, collagenase 3 (0.013 nM), collagenase 1 (1.25 nM), stromelysin 1 (0.8 nM), gelatinase A (0.025 nM), or gelatinase B (0.008 nM) were reacted with 20 uM FlSub3 in standard assay buffer in the presence of varying concentrations of bovine type II collagen (0.18-44 ug/ml). The type II collagen, a 1 mg/ml stock in 0.5M acetic acid, was transferred into assay buffer by passing the material through a biospin P6 column from Amersham. The reaction was initiated by addition of substrate to enzyme containing either buffer or an appropriate amount of type II collagen. Data points were taken every 15 min over a period of 15 hours using an excitation and emission wavelength of 350 and 485 nm respectively. The usable data (1-6 hours), was taken and the percent inhibition by type II collagen was calculated for each enzyme and plotted as a function of inhibitor concentration and time in the assay. It should be noted that the percent inhibition varies with time as the bovine substrate is consumed during the reaction course.

stromelysin 1 = stromelysin 1 (Homo sapiens, UniProt P08254); assay: Inhibition with type II collagen, FlSub3 cleavage; assay type: biochemical; settings: for Improvement In Selectivity (Strom1 v Col-3): 44 ug/ml Type II Collagen vs no Type II Collagen, FlSb3; for Average Percent Inhibition from 1.1 to 6.6 Hours / Average Percent Inhibition: STR1(.80 nM)
Description: as §1

[1] = TypeIICOL(15 ug/ul), FISb3, hour 2.10 to 3.10
[2] = TypeIICOL(15 ug/ul), FISb3, hour 3.10 to 4.10
[3] = TypeIICOL(15 ug/ul), FISb3, hour 4.10 to 5.10
[4] = TypeIICOL(15 ug/ul), FISb3, hour 5.10 to 6.10
[5] = TypeIICOL(44 ug/ul), FISb3, hour 0.10 to 1.10
[6] = TypeIICOL(44 ug/ul), FISb3, hour 1.10 to 2.10
[7] = TypeIICOL(44 ug/ul), FISb3, hour 1.10 to 6.60
[8] = TypeIICOL(44 ug/ul), FISb3, hour 2.10 to 3.10
[9] = TypeIICOL(44 ug/ul), FISb3, hour 3.10 to 4.10
[10] = TypeIICOL(44 ug/ul), FISb3, hour 4.10 to 5.10
[11] = TypeIICOL(44 ug/ul), FISb3, hour 5.10 to 6.10
[12] = TypeIICOL(.18 ug/ul), FISb3, hour 0.10 to 1.10
[13] = TypeIICOL(.18 ug/ul), FISb3, hour 1.10 to 2.10
[14] = TypeIICOL(.18 ug/ul), FISb3, hour 1.10 to 6.60
[15] = TypeIICOL(.18 ug/ul), FISb3, hour 2.10 to 3.10
[16] = TypeIICOL(.18 ug/ul), FISb3, hour 3.10 to 4.10
[17] = TypeIICOL(.18 ug/ul), FISb3, hour 4.10 to 5.10
[18] = TypeIICOL(.18 ug/ul), FISb3, hour 5.10 to 6.10

Sequence of stromelysin 1 (P08254 100-477): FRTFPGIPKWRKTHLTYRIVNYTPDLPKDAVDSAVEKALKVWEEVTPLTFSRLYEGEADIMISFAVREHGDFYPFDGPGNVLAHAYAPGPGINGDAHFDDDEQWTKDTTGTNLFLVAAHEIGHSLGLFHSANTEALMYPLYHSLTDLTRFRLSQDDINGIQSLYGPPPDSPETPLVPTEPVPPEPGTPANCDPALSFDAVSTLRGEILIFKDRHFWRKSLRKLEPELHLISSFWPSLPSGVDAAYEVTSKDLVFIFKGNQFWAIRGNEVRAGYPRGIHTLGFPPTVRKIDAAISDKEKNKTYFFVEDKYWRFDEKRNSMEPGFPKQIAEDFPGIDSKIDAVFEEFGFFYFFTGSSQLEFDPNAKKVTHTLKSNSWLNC
Sequence of gelatinase B (P14780 94-707): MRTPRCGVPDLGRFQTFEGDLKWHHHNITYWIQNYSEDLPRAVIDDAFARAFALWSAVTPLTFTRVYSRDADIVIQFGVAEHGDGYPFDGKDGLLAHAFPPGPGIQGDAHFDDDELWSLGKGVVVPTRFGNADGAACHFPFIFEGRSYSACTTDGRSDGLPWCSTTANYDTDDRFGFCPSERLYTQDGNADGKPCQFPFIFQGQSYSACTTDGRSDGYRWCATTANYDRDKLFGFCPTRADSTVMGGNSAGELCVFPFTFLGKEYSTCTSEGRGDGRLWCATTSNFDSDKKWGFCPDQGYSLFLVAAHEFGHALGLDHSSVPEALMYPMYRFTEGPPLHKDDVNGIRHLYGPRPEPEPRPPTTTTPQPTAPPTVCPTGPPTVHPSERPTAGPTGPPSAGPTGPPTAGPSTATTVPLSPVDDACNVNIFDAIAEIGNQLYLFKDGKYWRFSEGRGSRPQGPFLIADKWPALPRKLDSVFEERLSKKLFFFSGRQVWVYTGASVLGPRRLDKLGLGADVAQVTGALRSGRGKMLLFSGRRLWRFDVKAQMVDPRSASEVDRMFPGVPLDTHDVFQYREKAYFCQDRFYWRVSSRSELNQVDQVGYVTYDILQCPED

Average Percent Inhibition (gelatinase B; [1]): 72%
Average Percent Inhibition (gelatinase B; [2]): 69%
Average Percent Inhibition (gelatinase B; [3]): 64%
Average Percent Inhibition (gelatinase B; [4]): 59%
Average Percent Inhibition (gelatinase B; [5]): 41%
Average Percent Inhibition (gelatinase B; [6]): 82%
Average Percent Inhibition (gelatinase B; [7]): 84%
Average Percent Inhibition (gelatinase B; [8]): 87%
Average Percent Inhibition (gelatinase B; [9]): 87%
Average Percent Inhibition (gelatinase B; [10]): 85%
Average Percent Inhibition (gelatinase B; [11]): 83%
Average Percent Inhibition (gelatinase B; [12]): 3%
Average Percent Inhibition (gelatinase B; [13]): 12%
Average Percent Inhibition (gelatinase B; [14]): 9%
Average Percent Inhibition (gelatinase B; [15]): 11%
Average Percent Inhibition (gelatinase B; [16]): 9%
Average Percent Inhibition (gelatinase B; [17]): 7%
Average Percent Inhibition (gelatinase B; [18]): 5%
Average Percent Inhibition (gelatinase B; TypeIICOL(.55 ug/ul), FISb3, hour 0.10 to 1.10): 3%
Average Percent Inhibition (gelatinase B; TypeIICOL(.55 ug/ul), FISb3, hour 1.10 to 2.10): 10%
Average Percent Inhibition (gelatinase B; TypeIICOL(.55 ug/ul), FISb3, hour 1.10 to 6.60): 9%
Average Percent Inhibition (gelatinase B; TypeIICOL(.55 ug/ul), FISb3, hour 2.10 to 3.10): 12%
Average Percent Inhibition (gelatinase B; TypeIICOL(.55 ug/ul), FISb3, hour 3.10 to 4.10): 10%
Average Percent Inhibition (gelatinase B; TypeIICOL(.55 ug/ul), FISb3, hour 4.10 to 5.10): 8%
Average Percent Inhibition (gelatinase B; TypeIICOL(.55 ug/ul), FISb3, hour 5.10 to 6.10): 6%
inhibition of gelatinase B by type II collagen (gelatinase B; highest concentration (44 ug/ml), six hour time course, FlSub3): Almost complete inhibition
Improvement In Selectivity (Strom1 v Col-3) (stromelysin 1): 2.5 fold
Improvement In Selectivity (Strom1 v Col-3) (stromelysin 1; listed as collagen): four
Average Percent Inhibition from 1.1 to 6.6 Hours (stromelysin 1; Type II Collagen 0.18 ug/ml): 15%
Average Percent Inhibition from 1.1 to 6.6 Hours (stromelysin 1; Type II Collagen 0.54 ug/ml): 13%
Average Percent Inhibition from 1.1 to 6.6 Hours (stromelysin 1; Type II Collagen 1.63 ug/ml): 19%
Average Percent Inhibition from 1.1 to 6.6 Hours (stromelysin 1; Type II Collagen 4.89 ug/ml): 12%
Average Percent Inhibition from 1.1 to 6.6 Hours (stromelysin 1; Type II Collagen 14.67 ug/ml): 18%
Average Percent Inhibition from 1.1 to 6.6 Hours (stromelysin 1; Type II Collagen 44.00 ug/ml): 19%
Average Percent Inhibition (stromelysin 1; TypeIICOL(1.6 ug/ul), FISb3, hour 0.10 to 1.10): −10%
Average Percent Inhibition (stromelysin 1; TypeIICOL(1.6 ug/ul), FISb3, hour 1.10 to 2.10): 24%
Average Percent Inhibition (stromelysin 1; TypeIICOL(1.6 ug/ul), FISb3, hour 1.10 to 6.60): 19%
Average Percent Inhibition (stromelysin 1; TypeIICOL(1.6 ug/ul), FISb3, hour 2.10 to 3.10): 22%
Average Percent Inhibition (stromelysin 1; TypeIICOL(1.6 ug/ul), FISb3, hour 3.10 to 4.10): 18%
Average Percent Inhibition (stromelysin 1; TypeIICOL(1.6 ug/ul), FISb3, hour 4.10 to 5.10): 17%
Average Percent Inhibition (stromelysin 1; TypeIICOL(1.6 ug/ul), FISb3, hour 5.10 to 6.10): 16%
Average Percent Inhibition (stromelysin 1; TypeIICOL(4.9 ug/ul), FISb3, hour 0.10 to 1.10): 50%
Average Percent Inhibition (stromelysin 1; TypeIICOL(4.9 ug/ul), FISb3, hour 1.10 to 2.10): 23%
Average Percent Inhibition (stromelysin 1; TypeIICOL(4.9 ug/ul), FISb3, hour 1.10 to 6.60): 12%
Average Percent Inhibition (stromelysin 1; TypeIICOL(4.9 ug/ul), FISb3, hour 2.10 to 3.10): 11%
Average Percent Inhibition (stromelysin 1; TypeIICOL(4.9 ug/ul), FISb3, hour 3.10 to 4.10): 8%
Average Percent Inhibition (stromelysin 1; TypeIICOL(4.9 ug/ul), FISb3, hour 4.10 to 5.10): 8%
Average Percent Inhibition (stromelysin 1; TypeIICOL(4.9 ug/ul), FISb3, hour 5.10 to 6.10): 8%
Average Percent Inhibition (stromelysin 1; TypeIICOL(15 ug/ul), FISb3, hour 0.10 to 1.10): 57%
Average Percent Inhibition (stromelysin 1; TypeIICOL(15 ug/ul), FISb3, hour 1.10 to 2.10): 28%
Average Percent Inhibition (stromelysin 1; TypeIICOL(15 ug/ul), FISb3, hour 1.10 to 6.60): 18%
Average Percent Inhibition (stromelysin 1; [1]): 18%
Average Percent Inhibition (stromelysin 1; [2]): 14%
Average Percent Inhibition (stromelysin 1; [3]): 13%
Average Percent Inhibition (stromelysin 1; [4]): 14%
Average Percent Inhibition (stromelysin 1; [5]): 62%
Average Percent Inhibition (stromelysin 1; [6]): 32%
Average Percent Inhibition (stromelysin 1; [7]): 19%
Average Percent Inhibition (stromelysin 1; [8]): 18%
Average Percent Inhibition (stromelysin 1; [9]): 14%
Average Percent Inhibition (stromelysin 1; [10]): 14%
Average Percent Inhibition (stromelysin 1; [11]): 14%
Average Percent Inhibition (stromelysin 1; [12]): 22%
Average Percent Inhibition (stromelysin 1; [13]): 22%
Average Percent Inhibition (stromelysin 1; [14]): 15%
Average Percent Inhibition (stromelysin 1; [15]): 15%
Average Percent Inhibition (stromelysin 1; [16]): 12%
Average Percent Inhibition (stromelysin 1; [17]): 12%
Average Percent Inhibition (stromelysin 1; [18]): 12%
Average Percent Inhibition (stromelysin 1; TypeIICOL(.55 ug/ul), FLSb3, hour 0.10 to 1.10): 43%
Average Percent Inhibition (stromelysin 1; TypeIICOL(.55 ug/ul), FLSb3, hour 1.10 to 2.10): 26%
Average Percent Inhibition (stromelysin 1; TypeIICOL(.55 ug/ul), FLSb3, hour 1.10 to 6.60): 13%
Average Percent Inhibition (stromelysin 1; TypeIICOL(.55 ug/ul), FLSb3, hour 2.10 to 3.10): 14%
Average Percent Inhibition (stromelysin 1; TypeIICOL(.55 ug/ul), FLSb3, hour 3.10 to 4.10): 10%
Average Percent Inhibition (stromelysin 1; TypeIICOL(.55 ug/ul), FLSb3, hour 4.10 to 5.10): 8%
Average Percent Inhibition (stromelysin 1; TypeIICOL(.55 ug/ul), FLSb3, hour 5.10 to 6.10): 8%
Substance: Type II Collagen: bovine type II collagen, full length MMP substrate used as inhibitor of gelatinases
